{"source": "the DeepSol protein solubility set", "data": [{"assay": "soluble on expression in E. coli; label from the status in PepcDB or PDB records", "values": [{"sequence": "MESLKSNLFLTREAYLEAFETIMTPLKTAILTSEKPGVNFGSSGAVYDQQHAEMEALIRPLWGIGPYWVTCKDDVLRDAYVEKLIAGTDPSSPDYWGVIVDYDQYIVEAAALSLTLLLHKTYFWSCFSEKQQENIMVWLNKALGCKIPKNNWTFFKVLIRLALEGCGQVINQAELEEELALIECMYLGDGWYMDGKTTQRDYYISFAFHYYSLIYVKFMRERDPIRAKRFTERAVMFAQDYLYYFDEEGEALPYGRSQTYRFAQGAFFAALIFAEVEALPWGQIKTLLAKHLHCWMQQAIFTYDGRLSIGYHYENLVMAEGYNAPGSPYWAFKTFLLLAVDQDHPFWRAEPLAIKREEKRLIEKGNMLLIHPKMKTHVLGYPAGLWLENQAHAAAKYSKFVYSSRFGFSVPKAGARYEEGAFDNVLAVSRDGEYFRVKGKVHDFYLTEEQVYYKWLPFQEVEIETTIYPFGEWHVRVHEIVTSVPLKVREGGFSLPLLGKFSEKELGKEWARVDSGELCSQIVAIEGYDHAGILQPEPNTSLFFPRTSLPYLQKELPIGTHRLICLVGGVTREE", "soluble on expression in E. coli": "soluble"}, {"sequence": "MLRRCSVLLNDPPLVSGGPVVGLMRDTGTRTTIRPSIMDAQIAQSALEVKMSSLLAREMQAEKMEAEREPPLKRKWVKAPVSQLSTSLSRRDWFRLMSFNMMTDAWGPGHTTPVEAVRVRVPEFTRNPECDDPNACCDYDPSIDKEFPPFLTPEHRRKHLVELLRCYDPDIACLNEVKRTFFNTELWRYVRFLGYGTLYQSSRGAQVRALRKGDNAAAPSNQGKIAEEEDIGNVLLFHKGRFFPLMMPGRDIGQRFHFAHFVGMRDKVTNMTLYVACVQLTAGATAEAADVRLHEARQVLTILDALGRNDADRSHQSHIVCGDLNNQADDEPCVELLRDRFFSTHDLVGGPRWTAWHYRDDARAAAYDTYYTKNVEQAHRSDKAYQAEEEIHRFRRKDAGGYHGVFSKVRLVRDEIAARAHKKQQQQLTTPKTAPEVATPPPADTVAAAPAPSPASAPAPSDTAVRVDQLALLKESRKAKGITYNTQDFIFYDPSTLALHQVLDVPEDEEVNEAQLFPNHKLPSHHLPLFIDISWIDSFPDVAARTLKE", "soluble on expression in E. coli": "not soluble"}, {"sequence": "NENNTVVAETKTSTASETSEPKQVISSKQQLASLYLQAKQSLFKQRALSATMYGLSQKDIGQVISSDMEFYSPENEKQLRAELLSISNTIAGIKLDDADITTKNNQQVMAGLTRYFAGEPNFNIGYIDTWMGLSPFIVNQINGPLIDIPRVMQNDQPITTEKEALDYIVRLGQFDKLAATIIEKQTADAAQNWLPSKVTLQGAIKYLKGFTSGSAEQHPFVNVFREKIEKVDSLTTEQKQSLITQVIAKVSQVVYPAYQSVEKASEQLLSEARSESGIWAQPKGSVYYQDAIKQLGDSELSPTQIHQIGLDEVARISGVMNEILLAQGYTKGTVGERMVALNEEPRFLYEDSIAGREELLSDINGYITEVTAKMAPVFRTTPSYQVEVKSFPVEVQDGAPGGQYTSPAVDGSKPGIYWINLRDMKANPKFGLKTLTYHEANPGHHWQIALNLDQAELPFLRRIAPYNAYTEGWALYSEQVAYELGMYENDPFGDLGRLQAELFRAVRLVVDTGLHDKRWTREQAISYMSEQTGTAESDVVAEIERYMAWPGQALGYKLGMLKILSLREQAKARLGDKFDLAEFHDVVLLNGAVPMAVLSRNVNHWLDNK", "soluble on expression in E. coli": "soluble"}, {"sequence": "MGSDKIHHHHHHMDYYAGIDVSLELSSVCIVNQDGKIFREVKVASDPEALIGLFGGLGVALSRIGLEAGPLSQWLHAGLTAGGYDVVLLETRHVKAGLSAMTVKTDRKDARGIAHLLRMGWFRPVHCKTNSAQEIRVLLVGRKLLQSKMGDLEQGIRGLLRGFGLKVGVISKGRFAARIRELVAGQAMLETVAEPMLRARDALRAEFTLLHRQILAIVRKDDLCRRLMTVPGVGPLVALTFKSGIDDPSRFTSSKTVGAHFGLTPKKYQSGETDITGGITRTGDAMVRMALYEAAQVLLTRSQRFSSLKRWALEVAKRRGMKRAKVALARKLATVLHRMWIDGSDFRWGKEITSA", "soluble on expression in E. coli": "not soluble"}, {"sequence": "MAEMDERFQQILSWQQMDQNKAISQILQESAMQKAAFEALQVKKDLMHRQIRSQIKLIETELLQLTQLELKRKSLDTESLQEMISEQRWALSSLLQQLLKEKQQREEELREILTELEAKSETRQENYWLIQYQRLLNQKPLSLKLQEEGMERQLVALLEELSAEHYLPIFAHHRLSLDLLSQMSPGDLAKVGVSEAGLQHEILRRVQELLDAARIQPELKPPMGEVVTPTAPQEPPESVRPSAPPAELEVQASECVVCLEREAQMIFLNCGHVCCCQQCCQPLRTCPLCRQDIAQRLRIYHSS", "soluble on expression in E. coli": "soluble"}, {"sequence": "MSLFHDVRFPVSLSFGARGGPERRTEIVTLANGAEERNTPWAHSRRRFDAGMGLRSLDDLETVIAFFEARAGQMHAFRWKDWSDFKSCRPSASPAPTDQLLGMGDETTATFQLVKHYGTGGDTYARPITRPVAGTVQVAVGGSPVTEGVEWSVDTATGMVTFTHPPDVGGEVTAGFEFDVPVRFDTDRIETSLASFNAGEVPDLPVVEVRPEGHHHHHH", "soluble on expression in E. coli": "soluble"}, {"sequence": "MEIFMNYKKSNGLNYILISDTALFQGCSPVETEKLLSGMQFFTKAYKKGVPVYHAGTPVSDIGIVLHGVVQIENNDLWGNKNIISLAQAGEVFAEAYACIPGEPMMVDVIALEDCEILFLNVPRLFQLASSGKGEYSVLIRNLTMISARKNLLLSRRILHTSSKKIRGRLLSYLSHQAELQGSRYIDIPLNRQQLADYLSLDRSALSKELAKMKQDGLLDYHKNSFVLKNV", "soluble on expression in E. coli": "not soluble"}, {"sequence": "MKKRAGIWAALLLAAVMLAGCGNPADQKDSKAKQKTEVFPVTIDDASNQDVTIKKEPKKIVSLMPSNTEITYALGLGDKVVGVTTNDTYPKEVKKVEKVGDMNVNVEKVISLKPDLVLAHESSMSASADAIKQLKDAGITVLTVNDAQSFSEVYKSIEMIGEAGGAEKKADQLVKSMKSDLKDIQEKAKTISKDEEKSVFIEVSPDPDIYTTGKDTFMNEMLNVIHAKNAAADQTGWVQMTDEAIVKLNPDAIVTTDGVKAKAVEKRDGWSEINAVKHHRVYDVDPDLVTRSGPRLIEGVEELAESIYPDTFKE", "soluble on expression in E. coli": "not soluble"}, {"sequence": "MQFEKMITEGSNTASAEIDRVSTLEMCRIINDEDKTVPLAVERVLPDIAAAIDVIHAQVSGGGRLIYLGAGTSGRLGILDASECPPTYGVKPGLVVGLIAGGEYAIQHAVEGAEDSREGGVNDLKNINLTAQDVVVGIAASGRTPYVIAGLEYARQLGCRTVGISCNPGSAVSTTAEFAITPIVGAEVVTGSSRMKAGTAQKLVLNMLSTGLMIKSGKVFGNLMVDVVATNEKLHVRQVNIVKNATGCSAEQAEAALIACERNCKTAIVMVLKNLDAAEAKKRLDQHGGFIRQVLDKELEHHHHHH", "soluble on expression in E. coli": "soluble"}, {"sequence": "MSLAARRALHFVFKVGNRFQTARFYRDVLGMKVLRHEEFEEGCKAACNGPYDGKWSKTMVGFGPEDDHFVAELTYNYGVGDYKLGNDFMGITLASSQAVSNARKLEWPLTEVAEGVFETEAPGGYKFYLQNRSLPQSDPVLKVTLAVSDLQKSLNYWCNLLGMKIYEKDEEKQRALLGYADNQCKLELQGVKGGVDHAAAFGRIAFSCPQKELPDLEDLMKRENQKILTPLVSLDTPGKATVQVVILADPDGHEICFVGDEAFREGHHHHHH", "soluble on expression in E. coli": "soluble"}, {"sequence": "MGHHHHHHSHMVTMEELREMDCSVLKRLMNRDENGGGAGGSGSHGTLGLPSGGKCLLLDCRPFLAHSAGYILGSVNVRCNTIVRRRAKGSVSLEQILPAEEEVRARLRSGLYSAVIVYDERSPRAESLREDSTVSLVVQALRRNAERTDICLLKGGYERFSSEYPEFCSKTKALAAIP", "soluble on expression in E. coli": "not soluble"}, {"sequence": "MGSDKIHHHHHHLGNNAPRIIDFADSKGKGIIKYRYASMGAGQASSFQKKFTGKEPVEKIQHYLHVVFKEQLGKLYTAKTHEKMNLLSYYEFDNISAGKLKASIGNVYQGNIEANEFILHANSFPNPLNFYKNDLDTYLKNNNMYAFQSYVHGDLNGANIIIDAQDNVWIIDFFHTHRGHVLKDLVKLENDLLYIFSEMHSESDFQEALKISEVLFAVSDLQASLPDITQTGITKPSFVRVYKTLSYLRSLYSDLVEWDRNPLQVFIAQLRYSMHSLIFDECNQWQKEWALYNSGKFSQIISNKFLETDKLRIDFIKSDKIDAHSLALTILPGRKDYSRDLSEDLKEIKEQQIDCVVSLITKDEMDMYGVPELLDVYKKQGVECLHVPVIDQKIPVKAEIERINAFINAQQKKHKKVLIHCVGGLGRSGLVAACYLKSLGYPSDDAIKIVREARSSRAIESTEQEKFVYDYNERTV", "soluble on expression in E. coli": "not soluble"}, {"sequence": "MRPTVVSMGKHFGNLGKMYGEHRFALAPNEQKAYKGFFDQAFVKTFKTYVWDQWYYYIPQTIGAYLLYDWAKKTNVAANRKNPADFANDQ", "soluble on expression in E. coli": "not soluble"}, {"sequence": "MIVLRDVAGSDESMYQALQSDLDLTDYLSRFCPYNSSVANYDTSKVCWFIIEEDTNCIGSIWLERDAQEPDTVILGIFISGKNSRGRGIGSYAIREAIRISKQRMPFRYVRLNVRRNNLRAIRCYEKCGFKVCGEGQKNAKNGAIIDYYRMIMKVED", "soluble on expression in E. coli": "soluble"}, {"sequence": "ISGQKEFEEKPLESKEKYQDLFNLIEQAVQIGEIVFDENGRSIDNIILDVNLAYEKHSGLRREQVIGRGFKEIFPIVEQRWLDRYGEVVRTGMGMHFEEYNASLDRWFEVFASPMGSNRFIAVFSDIT", "soluble on expression in E. coli": "not soluble"}, {"sequence": "MATTLKPVDAVVVGFGWTGAILAKELTEAGLNVVALERGENRDTYPDGAYPNTLDELTYNTRGKLFQNLSKSTVSIRHGINDTALPYRQLSAFLPGDGVGGAGLHWSGVHFRIMPEELRLRSHYEERYGKKFIPEGMTIQDYGVSYEELEPHFDFAEKVFGTSGTAHTVKGQVVGKGNPFAADRSDDFPLPALRQVYSAQLFRKAAEELGLHPYDLPAANASGPWTNPYGVQMGPCNFCGFCSGYACYMYSKASPNLNILPALRQTPLFELRANCNVLKVNLDSDGRQATGVTYVDAQGREIVQPAKLVIISAFQFHNVRLLLLSGIGKPYDPRTGEGVVGKNFAYQNMATIKAFFDKDVHTNPFVGTGGGGVAVDDFNADNFDHGPLGFVGGSPMWVNQAGSKPIGGLAVPPGTPSWGSGWKQAVKDAYTHTVSMDAHGSNMTYRDNYLDLDPTYKDAYGQPLLRMTFDWKDNEIRMSRYVTEHMRKIAEAMNPKAISVSVKNFGDHFNTRVYQTTHLLGGAIMGSDPKTSVLNRYLQSWDVHNVFVMGASAFPQGTGYNPTGLVAALAYWSAKAIREQYLKNPGPLVQALEHHHHHH", "soluble on expression in E. coli": "not soluble"}, {"sequence": "ARQVICWCFTLNNPLSPLSLHDSMKYLVYQTEQGEAGNIHFQGYIEMKKRTSLAGMKKLIPGAHFEKRRGTQGEARAYSMKEDTRLEGPWEYGE", "soluble on expression in E. coli": "soluble"}, {"sequence": "MGHHHHHHSHMAASFAFLRDVRPYKTSWRVQVKVLHSWCQYTNMTGETLKLVLVNSQGVKIHASVKKDLVSKYVNNLPLNEWTFIETFALNHASGQFRPTGHLYKMSFVTGTQVIRCDS", "soluble on expression in E. coli": "soluble"}, {"sequence": "SNAMIVGIGIDIIELNRIEKMLDGKLKFMERILTENERNVAKGLKGSRLTEFVAGRFAAKEAYSKAVGTGIGKEVSFLDIEVRNDDRGKPILITSTEHIVHLSISHSKEFAVAQVVLESSSS", "soluble on expression in E. coli": "soluble"}, {"sequence": "MSLKINRIVNEGFMKTMLAAYLLGNSTVDLREVAVPTPGINQVLIKMKSSGICGSDVHYIYHQHRATAAAPDKPLYQGFINGHEPCGQIVAMGQGCRHFKEGDRVLVYHISGCGFCPNCRRGFPISCTGKGKAAYGWQRDGGHAEYLLAEEKDLILLPDALSYEDGAFISCGVGTAYEGILRGEVSGSDNVLVVGLGPVGMMAMMLAKGRGAKRIIGVDMLPERLAMAKQLGGMDHGYLATTEGLPQIIAELTHGGADVALDCSGNAAGRLLALQSTADWGRVVYIGETGKVEFEVSADLMHHQRRIIGSWVTSLFHMEKCAHDLTDWKLWPRNAITHRFSLEQAGDAYVLMASGKCGKVVINFPDEGHHHHHH", "soluble on expression in E. coli": "not soluble"}]}]}
